Source: US20040014207A1

Biological target: murine B7-DC (murine) (UniProt Q9WUL5)
Assay: flow cytometry competition; murine bone marrow derived dendritic cells preincubated with PD-1.Ig, then stained with sHIgM12

Sequence of murine B7-DC (murine) (Q9WUL5 20-247): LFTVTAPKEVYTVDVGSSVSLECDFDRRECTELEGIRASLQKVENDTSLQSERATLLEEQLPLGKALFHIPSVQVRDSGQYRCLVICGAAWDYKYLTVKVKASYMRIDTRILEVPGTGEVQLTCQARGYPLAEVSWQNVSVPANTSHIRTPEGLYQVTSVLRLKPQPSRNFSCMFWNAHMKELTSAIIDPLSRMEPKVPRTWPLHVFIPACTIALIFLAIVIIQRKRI
Sequence of PD-1.Ig fusion protein (Fc fusion) (Q02242 25-169): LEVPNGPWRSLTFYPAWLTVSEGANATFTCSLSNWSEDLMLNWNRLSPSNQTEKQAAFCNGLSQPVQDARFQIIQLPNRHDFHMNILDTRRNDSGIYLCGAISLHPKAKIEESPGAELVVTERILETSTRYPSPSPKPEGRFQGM

- sHIgM12 staining remaining, percent of the level in the absence of PD-1: 50%
Substance: PD-1.Ig fusion protein (Fc fusion)
